Assay in all cases: immunostaining of cells or tissue; cell-surface binding assay: HEK293T cells expressing WT or mutant HA-tagged Slitrks incubated with 10 μg/ml control IgC or Ig-PTPδ; immunofluorescence imaging of Ig-fusion proteins and HA; percentage of cells exhibiting binding
The target of assay [1] is HA-tagged Slitrk1[N400I] (human) (UniProt Q96PX8).
For assay [2], the target named is HA-tagged Slitrk1[R584K] (human) (UniProt Q96PX8).
Assay [3] has as its target HA-tagged Slitrk1[S593G] (human) (UniProt Q96PX8).
The target in assay [4] is HA-tagged Slitrk1[T418S] (human) (UniProt Q96PX8).
In assay [5] the target is HA-tagged Slitrk2[L626F] (human) (UniProt Q9H156).
Assay [6] deals with HA-tagged Slitrk2[R32L] (human) (UniProt Q9H156).
In assay [7] the target is HA-tagged Slitrk2[S549F] (human) (UniProt Q9H156).
Assay [8] addresses HA-tagged Slitrk2[S601P] (human) (UniProt Q9H156).
Assay [9] has as its target HA-tagged Slitrk2[V89M] (human) (UniProt Q9H156).
Assay [10] has as its target HA-tagged Slitrk4[I578V] (human) (UniProt Q8IW52).
Assay [11] deals with HA-tagged Slitrk4[V206I] (human) (UniProt Q8IW52).
The target in assay [12] is HA-tagged full-length Slitrk1 wild type (human) (UniProt Q96PX8).
In assay [13] the target is HA-tagged full-length Slitrk2 wild type (human) (UniProt Q9H156).
In assay [14] the target is HA-tagged full-length Slitrk4 wild type (human) (UniProt Q8IW52).

Consider “recombinant Ig-fusion protein of PTPδ (IgC-PTPδ) (from UniProt P23468 21-1912) (Fc fusion)”, for which the percentage of cells exhibiting the binding of Ig-PTPδ in [1] amounted to 32%; in assay [2], 62%; in [3], 68.7%; in assay [4] it was 41%; in assay [5], 76%; in assay [6], 82%. Also, the percentage of cells exhibiting the binding of Ig-PTPδ was determined as 68.8% in assay [7]; 80% in assay [8]; 81% in assay [9]; 22.2% in assay [10]; 24% in assay [11]; 66.7% in assay [12]. The percentage of cells exhibiting the binding of Ig-PTPδ in assay [13] was determined as 71%; in assay [14], 81%.

Source of the values: PMC5071332.
